# Residue numbers refer to the chain shown, from its start. Names and notes keep the numbering of the source.
# B1: ICOS monomer protein (ICOS E21-H129) (receptor, human, UniProt Q9Y6W8 21-129, looked up)
# chain: EINGSANYEMFIFHNGGVQILCKYPDIVQQFKMQLLKGGQILCDLTKTKGSGNTVSIKSLKFCHSQLSNNSVSFFLYNLDHSHANYYFCNLSIFDPPPFKVTLTGGYLH
# notes: range 21-129; also called wild-type ICOS
# B2: A184 (ligand)
# single chain: DTQEKEVRAMVGSDVELSCACPEGSRFDLNDVYVYWQTSESKTVVTYHIPQHSSLEYVDSRYRNRALMSPAGMLRGDFSLRLFNVTPQDEQKFHCLVLSPSLGFQEVLSVEVTLHVAANFSVPVVSAPHSPSQDELTFTCTSINGYPRPNVYWINKTDNSLLDQALQNDTVFLNMRGLYDVVSVLRIARTPSVNIGCCIENVLLQQNLTVGSQTGNDIGERDKITENPVSTGEKNAAT
# notes: Soluble form without Fc; the Fc and atezolizumab fusions are m12, m15 and m18; also called control A184
# B3: ICOS-L variant Y8_P51Q (ligand)
# chain: B2 single chain with H52N, Y57H, P100Q
# notes: P51 of Y8 put back to Q; keeps N57H only
# B4: Dimeric human ICOS (ICOS-Fc) (Fc fusion, UniProt Q9Y6W8 21-140, looked up)
# chain: EINGSANYEMFIFHNGGVQILCKYPDIVQQFKMQLLKGGQILCDLTKTKGSGNTVSIKSLKFCHSQLSNNSVSFFLYNLDHSHANYYFCNLSIFDPPPFKVTLTGGYLHIYESQLCCQLK
# notes: range 21-140; Fc at the C-terminus of ICOS to induce dimerization; Labeled with Alexa488 when used as probe in the flow cytometry on yeast; also called ICOS-Fc dimer protein; ICOS dimer protein; not shown: GS linker of glycine and serine; Fc region (domain) of human IgG antibody
# B5: ICOS-L variant Y8 (ligand)
# chain: B2 single chain with Q51P, H52N, Y57H, P100Q
# B6: ICOS-L variant Y8_H57N (ligand)
# chain: B2 single chain with Q51P, H52N, Y57N, P100Q
# notes: H57 of Y8 put back to N
# How the values were obtained:
# [1] = molecular target: T1, ICOS-L variant Y8 fused to antibody Fc domain (LALAPG) (human, UniProt O75144 19-256); test: ELISA, ICOS-L-Fc coated at 4 ug/ml, His-tagged ICOS monomer titrated, anti-His-HRP
# T1 construct: also called Y8-Fc; not shown: human IgG1 Fc with L234A/L235A/P329G C-terminal to ICOS-L
# T1 chain: B2 single chain with Q51P, H52N, Y57H, P100Q
# Protocol: (§1) After washing four times, 50 μl of an anti-His-HRP conjugate was added and reacted at room temperature for 1 hour, and then washed four times. Thereafter, 50 μl of a 1-Step Ultra TMB-ELISA substrate solution (Thermo Fisher Scientific, 34028) was added to develop color, and then added with 50 μl each of 2 M H₂SO₄ to terminate the reaction, and then analyzed using an Epoch microplate spectrophotometer (BioTek).
# [2] = molecular target: T2, ATZ (H)-A184: ICOS-L A184 variant fused to the heavy chain of Atezolizumab with LALAPG mutation in the Fc … (Homo sapiens (Human), UniProt O75144 19-256); test: sandwich ELISA, PD-L1-Fc coated at 40 nM, atezolizumab fusion captured at 200 nM, His-tagged ICOS monomer titrated, anti-His-HRP
# T2 construct: Antibody-ligand fusion; ICOS-L at the C-terminal of the heavy chain; not shown: Atezolizumab heavy chain (VH plus IgG1 constant region with LALAPG), atezolizumab light chain, and any linker
# T2 chain: B2 single chain
# Protocol: (§2) Specifically, 50 μl of 40 nM PD-L1-Fc in 0.05 M Na₂CO₃ (pH 9.6) was dispensed into a Flat Bottom Polystyrene High Bind 96-well microplate (Costar), immobilized at 4° C. for 16 hours, and then blocked with 100 μl of PBS (pH 7.4) containing 0.5% bovine serum albumin (BSA) (Gibco) for 2 hours at room temperature. […] After washing four times, 50 μl of an anti-His-HRP conjugate was added and reacted at room temperature for 1 hour, and then washed four times. Thereafter, 50 μl of a 1-Step Ultra TMB-ELISA substrate solution (Thermo Fisher Scientific, 34028) was added to develop color, and then added with 50 μl each of 2 M H₂SO₄ to terminate the reaction, and then analyzed using an Epoch microplate spectrophotometer (BioTek).
# [3] = molecular target: T3, ATZ (L)-Y8_H57N: ICOS-L Y8_H57N variant fused to the light chain of Atezolizumab with LALAPG mutation in the … (Homo sapiens (Human), UniProt O75144 19-256); test: as above
# T3 construct: Antibody-ligand fusion; ICOS-L at the C-terminal of the light chain; not shown: Atezolizumab light chain (VL plus constant region), atezolizumab heavy chain with LALAPG, and any linker
# T3 sequence: B2 single chain with Q51P, H52N, Y57N, P100Q
# Protocol: as §2
# [4] = molecular target: B4; test: bio-layer interferometry (Octet R8), ICOS-Fc captured on Protein A biosensor, ICOS-L variant in solution; the table prints no units
# [5] = molecular target: B4; test: ELISA, ICOS-Fc coated at 4 ug/ml, ICOS-L variant titrated, anti-His-HRP (x axis printed as PD-L1 CO…ON (nM))
# Protocol: as §1
# [6] = molecular target: B4; test: bio-layer interferometry (Octet R8); fold gain of KD over wild-type ICOS-L as printed in the table
# ICOS-L variant Y8_P51Q = molecular target: B3; test: bio-layer interferometry (Octet R8), ICOS-Fc captured on Protein A biosensor, ICOS-L variant in solution; the table prints no units
# wild-type ICOS-L = molecular target: T4, wild-type ICOS-L (Homo sapiens (Human), UniProt O75144 19-256); test: as above
# T4 construct: also called wild-type Inducible Co-Stimulator-ligand
# T4 sequence: B2 single chain with H52N, Y57N, P100Q
# ICOS-L variant Y8_H57N = molecular target: B6; test: as above
# [7] = molecular target: B4; test: ELISA, ICOS-Fc coated at 4 ug/ml, ICOS-L variant titrated, anti-His-HRP
# Protocol: as §1
Binder,Kd [4] [nM],EC50 (read off the curve) [5] [nM],INCREASED MULTIPLE [6],EC50 (read off the curve) [7] [nM],other results
B1,–,–,–,–,EC50 (read off the curve) [1]: ~4 nM; EC50 (read off the curve) [2]: ~5 nM; EC50 (read off the curve) [3]: ~9 nM
B2,23.1,~20,4.89,–,–
B3,–,–,4.85,–,–
B4,–,–,–,–,Kd (ICOS-L variant Y8_P51Q): 23.3 nM; Kd (wild-type ICOS-L): 113 nM; Kd (ICOS-L variant Y8_H57N): 4.75 nM
B5,1.19,~6,95,~4,–
B6,–,–,23.8,~10,–

# From patent publication US20250326816A1 (KOREA UNIVERSITY RESEARCH AND BUSINESS FOUNDATION, published 2025)
